# Residue numbers refer to the chain shown, from its start.
# B1: P19 anti-GPC3 scFv-Fc (Fc fusion)
# VH: EVQLVESGGGLVKPGGSLRLSCAASGFTFSDYYMSWIRQAPGKGLEWVSYISSSGSTIYYADSVKGRFTISRDNAKNSLYLQMNSLRAEDTAVYYCASVYMDVWGKGTTVTVSS
# VL: EIVMTQSPGTLSLSPGERATLSCRASQTVSSSSLAWYQQRPGQAPRLLIYETSSRATGIPDRFSGSGSGTDFTLTISRLEPEDFAIYYCQQKGDSGYTFGQGTKVEIK
# notes: scFv-Fc, human IgG1 constant regions
# B2: 71 anti-GPC3 scFv-Fc (Fc fusion)
# VH: QVQLVESGGGVVQPGRSLRLSCAASGFTFSSYAMHWVRQAPGKGLEWVAVISYDGSNKYYADSVKGRFTISRDNSKNTLYLQMNSLRAEDTAVYYCARGGDGYNAAFDIWGQGTMVTVSS
# VL: NFMLTQPPSVSESPGKTVTISCTGSSGSIASNYVQWYQQRPGSAPTTVIYEDNQRPSGVPDRFSGSIDSSSNSASLTISGLKTEDEADYYCQSYDSSKHYVFGTGTKVTVL
# notes: as for B1
# B3: P3 anti-GPC3 scFv-Fc (Fc fusion)
# VH: QVQLQQSGPGLVKPSQTLSITCAISGDSVSSNSAAWNWIRQSPSRGLEWLGRTYYRSKWYNDYAVSVKSRITINPDTSKNQFSLQLNSVTPEDTAVYYCASSYYNGGYFDYWGQGTLVTVSS
# VL: EIVLTQSPATLSVSPGGRATLSCRASQSVTTNLAWYQQKPGQAPRLLIYGASTRVTGVPRRFSGSGSGTDFTLTISSLQSEDSAVYYCQQYSGWGGFGGGTKVDIK
# notes: as for B1
# B4: P17 WT IgG (antibody, V domains shown)
# VH: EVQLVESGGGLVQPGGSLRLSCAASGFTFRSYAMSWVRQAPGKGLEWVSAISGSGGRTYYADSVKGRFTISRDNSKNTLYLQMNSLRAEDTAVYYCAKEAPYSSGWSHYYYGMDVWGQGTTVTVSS
# VL: QSVLTQPPSVSGAPGQRVTISCTGSSSGYDVHWYQQLPGRAPKLLIYGSNNRPSGVPDRFSGSNSGTSASLAITGLQAEDEADYYCQSYDSSLNAIFGGGTKLTVL
# notes: IgG
# B5: P17-8E12 IgG (antibody, V domains shown)
# VH: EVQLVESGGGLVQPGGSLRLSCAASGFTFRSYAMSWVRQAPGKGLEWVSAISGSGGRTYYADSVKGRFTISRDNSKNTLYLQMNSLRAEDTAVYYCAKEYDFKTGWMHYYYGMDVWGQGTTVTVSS
# VL: B4 VL
# notes: IgG
# B6: P17-11F4 IgG (antibody, V domains shown)
# VH: EVQLVESGGGLVQPGGSLRLSCAASGFTFKDYAMSWVRQAPGKGLEWVSALSGSGGATYYADSVKGRFTISRDNSKNTLYLQMNSLRAEDTAVYYCAKEMDFRYGWMHYYYGMDVWGQGTTVTVSS
# VL: B4 VL
# notes: IgG
# B7: P17-16A1 IgG (antibody, V domains shown)
# VH: B6 VH with D31R, A50S, L51V, G53S, G56T, A57G, M100Y, F102Y, R103G, Y104L
# VL: B4 VL
# notes: IgG
# B8: P17-16A11 IgG (antibody, V domains shown)
# VH: B6 VH with K30D, D31R, A50S, G53A, G56S, A57G, M100Y, R103S
# VL: B4 VL
# notes: IgG
# B9: P17-16E6 IgG (antibody, V domains shown)
# VH: B6 VH with K30R, D31K, A50S, G53A, G56S, M100A, F102Y, R103S, Y104M
# VL: B4 VL
# notes: IgG
# B10: P10 anti-GPC3 scFv-Fc (Fc fusion)
# VH: EVQLVQSGAEVKKPGSSVKVSCKASGGTFRSYAISWVRQAPGQGLEWMGGIIPIFGTANYAQKFQGRVTITADELTSTAYMELSSLRSEDTAVYYCASRIGQWPTPFDYWGQGTLVTVSS
# VL: QSVLTQPPSVSVAPGKTARITCGGNNIGSKSVHWYQQKPGQAPVLVIYYDSDRPSGIPERFSGSNSGNTATLTISRVEAGDEADYYCQVWDSSSDHPVFGGGTKLTVL
# notes: as for B1
# B11: P17 WT Fab (Fab, V domains shown)
# VH: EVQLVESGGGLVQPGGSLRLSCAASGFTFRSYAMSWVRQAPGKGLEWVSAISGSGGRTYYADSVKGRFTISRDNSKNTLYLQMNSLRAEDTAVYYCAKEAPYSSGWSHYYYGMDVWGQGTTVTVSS
# VL: B4 VL
# notes: Fab format, lambda light chain (detected with an anti-Lambda antibody)
# B12: P17-8E12 Fab (Fab, V domains shown)
# VH: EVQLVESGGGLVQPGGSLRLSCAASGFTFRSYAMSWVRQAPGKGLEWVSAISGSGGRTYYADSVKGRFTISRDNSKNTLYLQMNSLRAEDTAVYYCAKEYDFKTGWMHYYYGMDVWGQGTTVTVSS
# VL: B4 VL
# notes: Fab format
# B13: P17-11F4 Fab (Fab, V domains shown)
# VH: B6 VH
# VL: B4 VL
# notes: Fab format
# B14: P17-13F3 Fab (Fab, V domains shown)
# VH: B6 VH with K30E, D31G, A50N, L51V, G56D, A57G, M100Y, F102Y, R103K, Y104T
# VL: B4 VL
# notes: Fab format
# B15: P17-13G2 Fab (Fab, V domains shown)
# VH: B6 VH with K30G, D31E, A50G, L51M, G56D, A57G, F102Y, R103Q, Y104L
# VL: B4 VL
# notes: Fab format
# B16: P17-15F8 Fab (Fab, V domains shown)
# VH: B6 VH with K30G, D31N, A50G, L51V, G56D, A57G, M100Y, R103G, Y104L
# VL: B4 VL
# notes: Fab format
# B17: P17-16A1 Fab (Fab, V domains shown)
# VH: B6 VH with D31R, A50S, L51V, G53S, G56T, A57G, M100Y, F102Y, R103G, Y104L
# VL: B4 VL
# notes: Fab format
# B18: P17-16A11 Fab (Fab, V domains shown)
# VH: B6 VH with K30D, D31R, A50S, G53A, G56S, A57G, M100Y, R103S
# VL: B4 VL
# notes: Fab format
# B19: P17-16E6 Fab (Fab, V domains shown)
# VH: B6 VH with K30R, D31K, A50S, G53A, G56S, M100A, F102Y, R103S, Y104M
# VL: B4 VL
# notes: Fab format
# B20: P17-15D5 Fab (Fab, V domains shown)
# VH: B6 VH with K30A, D31N, A50D, L51V, G53A, G56V, A57G, M100V, R103K, Y104L
# VL: B4 VL
# notes: Fab format
# B21: P20 anti-GPC3 scFv-Fc (Fc fusion)
# VH: B1 VH
# VL: B10 VL with Q1S, S2Y, V3E, K16Q, I47V, Y49D, I57V, S92N, P97Q
# notes: scFv-Fc, human IgG1 constant regions; The VH as printed is the same as that of P19
# How the values were obtained:
# [1] = target: T1, Glypican 3 Protein, Human, Recombinant (His Tag) (Sino Biological, Cat #10088-H08H) (human, UniProt P51654 25-559); assay: sandwich-style epitope binning, Octet AHC biosensor, 300 nM human GPC3
# T1 construct: Bought recombinant protein; also called Hu-GPC3 (10088-H08H); human GPC3; not shown: His tag
# [2] = target: T1, Glypican 3 Protein, Human, Recombinant …; assay: Octet QKe BLI, antibody on AHC probe, antigen in solution, 1:1 fit
# Cy-GPC3 (GP3-C5225) = Cy-GPC3 (GP3-C5225) (Cy (so in the source)); assay: as above
# [3] = target: T1, Glypican 3 Protein, Human, Recombinant …; assay: Octet QKe BLI, IgG on AHC probe, GPC3 (Sino Biological) in solution, 1:1 fit
# [4] = target: T1, Glypican 3 Protein, Human, Recombinant …; assay: Octet QKe BLI, ratio of KDs against P17 WT
# [5] = target: T2, GPC3 expressed on the cell surface of HepG2, Huh7 and Hep3B cells (human, UniProt P51654 25-554); assay: flow cytometry, Fab titrated on Hep3B cells
# T2 construct: Endogenous GPC3 of human liver tumour cell lines; also called Glypican 3 protein on the cell surface; endogenously expressed GPC3
# [6] = target: T3, Fc-tagged human Glypican 3 protein (Acro Biosystems, cat #GP3-H5258) (human, UniProt P51654 25-559); assay: ELISA, Fab titrated on coated Fc-tagged human GPC3, anti-Lambda HRP detection
# T3 construct: Bought; also called recombinant human GPC3; not shown: Fc tag
# T3 sequence (P51654 25-559 limits assumed): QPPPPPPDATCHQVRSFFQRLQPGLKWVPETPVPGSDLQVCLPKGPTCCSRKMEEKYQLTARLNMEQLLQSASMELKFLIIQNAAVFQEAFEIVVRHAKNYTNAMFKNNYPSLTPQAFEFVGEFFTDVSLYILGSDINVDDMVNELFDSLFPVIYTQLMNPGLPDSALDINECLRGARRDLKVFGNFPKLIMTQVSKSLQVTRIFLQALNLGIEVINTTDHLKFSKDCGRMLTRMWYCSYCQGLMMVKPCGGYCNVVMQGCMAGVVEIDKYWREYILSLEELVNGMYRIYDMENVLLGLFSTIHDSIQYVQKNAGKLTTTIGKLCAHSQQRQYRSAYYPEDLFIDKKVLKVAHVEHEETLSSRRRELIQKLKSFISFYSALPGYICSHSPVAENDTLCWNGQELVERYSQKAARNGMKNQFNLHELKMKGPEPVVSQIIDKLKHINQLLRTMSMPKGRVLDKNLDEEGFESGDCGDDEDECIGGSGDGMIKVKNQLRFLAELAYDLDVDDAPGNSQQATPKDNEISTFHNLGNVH
# T1 sequence (P51654 25-559 limits assumed): as above
# T2 sequence (P51654 25-554 limits assumed): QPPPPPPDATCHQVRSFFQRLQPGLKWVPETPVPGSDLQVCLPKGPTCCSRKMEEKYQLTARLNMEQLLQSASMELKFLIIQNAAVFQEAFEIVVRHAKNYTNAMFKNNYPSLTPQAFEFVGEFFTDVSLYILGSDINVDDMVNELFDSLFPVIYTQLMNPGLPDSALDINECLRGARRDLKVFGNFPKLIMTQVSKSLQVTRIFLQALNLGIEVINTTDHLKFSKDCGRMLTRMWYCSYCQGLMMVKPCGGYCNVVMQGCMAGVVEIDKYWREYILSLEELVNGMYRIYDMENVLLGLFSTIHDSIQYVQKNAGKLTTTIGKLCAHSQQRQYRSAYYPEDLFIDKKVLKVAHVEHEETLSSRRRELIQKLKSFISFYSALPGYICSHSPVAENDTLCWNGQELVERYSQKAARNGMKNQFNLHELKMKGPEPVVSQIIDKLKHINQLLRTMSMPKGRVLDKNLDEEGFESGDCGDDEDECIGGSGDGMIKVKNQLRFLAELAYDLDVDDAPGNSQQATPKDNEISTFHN
binder,measurement,setting,value
B1,binding result,[1],binds
B2,binding result,[1],binds
B3,Kd,[2],20.1 nM
same,Kd,Cy-GPC3 (GP3-C5225),5.45 nM
B4,Kd,[3],5.99 nM
same,koff,[3],0.000833 s⁻¹
same,kon,[3],139000 M⁻¹ s⁻¹
B5,Kd,[3],< 0.001 nM
same,koff,[3],1.79e-07 s⁻¹
same,kon,[3],223000 M⁻¹ s⁻¹
same,fold lower KD than P17 WT,[4],6000 fold
B6,Kd,[3],< 0.001 nM
same,koff,[3],1.83e-07 s⁻¹
same,kon,[3],188000 M⁻¹ s⁻¹
same,fold lower KD than P17 WT,[4],6000 fold
B7,Kd,[3],0.00117 nM
same,koff,[3],2.51e-07 s⁻¹
same,kon,[3],215000 M⁻¹ s⁻¹
B8,Kd,[3],0.00103 nM
same,koff,[3],1.87e-07 s⁻¹
same,kon,[3],182000 M⁻¹ s⁻¹
B9,Kd,[3],0.00133 nM
same,koff,[3],2.76e-07 s⁻¹
same,kon,[3],208000 M⁻¹ s⁻¹
B10,Kd,[2],2.85 nM
same,Kd,Cy-GPC3 (GP3-C5225),1.28 nM
B11,EC50,[5],21.3 ng/mL
same,EC50,[6],191 ng/mL
B12,EC50,[5],8.3 ng/mL
same,EC50,[6],9.6 ng/mL
B13,EC50,[5],9.9 ng/mL
same,EC50,[6],9.5 ng/mL
B14,EC50,[5],14.8 ng/mL
same,EC50,[6],11.7 ng/mL
B15,EC50,[5],13 ng/mL
same,EC50,[6],8.4 ng/mL
B16,EC50,[5],10.4 ng/mL
same,EC50,[6],8.9 ng/mL
B17,EC50,[5],7.4 ng/mL
same,EC50,[6],9.3 ng/mL
B18,EC50,[5],8.3 ng/mL
same,EC50,[6],8.7 ng/mL
B19,EC50,[5],8.5 ng/mL
same,EC50,[6],9.6 ng/mL
B20,EC50,[5],9.7 ng/mL
same,EC50,[6],9 ng/mL
B21,Kd,[2],100 nM

# Source: patent US20260132214A1 (JECHO LABORATORIES, published 2026)
